Reference: US20220074941A1, “HSP90 COMBINATION THERAPY” (Sloan-Kettering Institute for Cancer Research, priority 2011, published 2022)

Key:
[1] = test system: Hsp90 complexes in K562 cell extract; assay: Nano-LC-MS/MS of PU-beads pull-downs; assay type: binding; conditions: protein identified in PU-beads pull-down of K562 cell extract, QSTAR-Elite QTof MS
Summary of the method: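 Lysates pre-cleared overnight at 4 °C with control beads, then pulled down with PU-beads or control beads; eluted proteins (2% SDS boil) gel-separated and analysed by nano LC-MS/MS on a QTof. Mascot identification (p<0.05), spectral counts and sequence coverage evaluated in Scaffold.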

[2] = test system: Hsp90 complexes in Mia-PaCa-2 cell extract; assay: Nano-LC-MS/MS of PU-beads pull-downs; assay type: binding, human; conditions: protein identified in PU-beads pull-down of Mia-PaCa-2 cell extract; QSTAR-Elite QTof MS
Summary of the method: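 Lysates pre-cleared overnight at 4 °C with control beads underwent PU-bead pull-down; bound proteins were SDS-eluted, gel-separated, digested and analyzed by nano-LC-MS/MS on a QTof. Identifications used significance p<0.05, 0.4 Da tolerances and one missed cleavage; unique peptide (spectral) counts and sequence coverage were reported.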

Molecule | Number of Assigned Spectra, K562 Prep 1 [1] | Number of Assigned Spectra, K562 Prep 2 [1] | Number of Assigned Spectra, Mia-Paca 2 [2]
CT45A5 (protein, UniProt P0DMU8 1-189, looked up) Cancer/testis antigen family …: MTDKTEKVAVDPETVFKRPRECDSPSYQKRQRMALLARKQGAGDSLIAGSAMSKEKKLMTGHAIPPSQLDSQIDDFTGFSKDGMMQKPGSNAPVGGNVTSSFSGDDLECRETASSPKSQREINADIKRKLVKELRCVGQKYEKIFEMLEGVQGPTAVRKRFFESIIKEAARCMRRDFVKHLKKKLKRMI | 2 | 0 | 0
ZBED1 (protein, UniProt O96006 1-694, looked up) E3 SUMO-protein ligase ZBED1: MENKSLESSQTDLKLVAHPRAKSKVWKYFGFDTNAEGCILQWKKIYCRICMAQIAYSGNTSNLSYHLEKNHPEEFCEFVKSNTEQMREAFATAFSKLKPESSQQPGQDALAVKAGHGYDSKKQQELTAAVLGLICEGLYPASIVDEPTFKVLLKTADPRYELPSRKYISTKAIPEKYGAVREVILKELAEATWCGISTDMWRSENQNRAYVTLAAHFLGLGAPNCLSMGSRCLKTFEVPEENTAETITRVLYEVFIEWGISAKVFGATTNYGKDIVKACSLLDVAVHMPCLGHTFNAGIQQAFQLPKLGALLSRCRKLVEYFQQSAVAMYMLYEKQKQQNVAHCMLVSNRVSWWGSTLAMLQRLKEQQFVIAGVLVEDSNNHHLMLEASEWATIEGLVELLQPFKQVAEMLSASRYPTISMVKPLLHMLLNTTLNIKETDSKELSMAKEVIAKELSKTYQETPEIDMFLNVATFLDPRYKRLPFLSAFERQQVENRVVEEAKGLLDKVKDGGYRPAEDKIFPVPEEPPVKKLMRTSTPPPASVINNMLAEIFCQTGGVEDQEEWHAQVVEELSNFKSQKVLGLNEDPLKWWSDRLALFPLLPKVLQKYWCVTATRVAPERLFGSAANVVSAKRNRLAPAHVDEQVFLYENARSGAEAEPEDQDEGEWGLDQEQVFSLGDGVSGGFFGIRDSSFL | 2 | 0 | 0
MOBKL3 (protein, UniProt Q96BX8 1-217, looked up) MOB kinase activator 3A: MSNPFLKQVFNKDKTFRPKRKFEPGTQRFELHKKAQASLNAGLDLRLAVQLPPGEDLNDWVAVHVVDFFNRVNLIYGTISDGCTEQSCPVMSGGPKYEYRWQDEHKFRKPTALSAPRYMDLLMDWIEAQINNEDLFPTNVGTPFPKNFLQTVRKILSRLFRVFVHVYIHHFDRIAQMGSEAHVNTCYKHFYYFVKEFGLIDTKELEPLKEMTARMCH | 0 | 0 | 1
PRCC (protein, UniProt Q92733 1-491, looked up) Proline-rich protein PRCC: MSLVAYASSDESEPDEAEPEPEEEEAVAPTSGPALGGLFASLPAPKGPALLPPPPQMLAPAFPPPLLLPPPTGDPRLQPPPPLPFGLGGFPPPPGVSPAEAAGVGEGLGLGLPSPRGPGLNLPPPIGGAGPPLGLPKPKKRKEPVKIAAPELHKGDSDSEEDEPTKKKTILQGSSEGTGLSALLPQPKNLTVKETNRLLLPHAFSRKPSDGSPDTKPSRLASKTKTSSLAPVVGTTTTTPSPSAIKAAAKSAALQVTKQITQEEDDSDEEVAPENFFSLPEKAEPPGVEPYPYPIPTVPEELPPGTEPEPAFQDDAANAPLEFKMAAGSSGAPWMPKPGDDYSYNQFSTYGDANAAGAYYQDYYSGGYYPAQDPALVPPQEIAPDASFIDDEAFKRLQGKRNRGREEINFVEIKGDDQLSGAQQWMTKSLTEEKTMKSFSKKKGEQPTGQQRRKHQITYLIHQAKERELELKNTWSENKLSRRQTQAKYGF | 2 | 0 | 0
WASF2 (protein, UniProt Q9Y6W5 1-498, looked up) Actin-binding protein WASF2: MPLVTRNIEPRHLCRQTLPSVRSELECVTNITLANVIRQLGSLSKYAEDIFGELFTQANTFASRVSSLAERVDRLQVKVTQLDPKEEEVSLQGINTRKAFRSSTIQDQKLFDRNSLPVPVLETYNTCDTPPPLNNLTPYRDDGKEALKFYTDPSYFFDLWKEKMLQDTKDIMKEKRKHRKEKKDNPNRGNVNPRKIKTRKEEWEKMKMGQEFVESKEKLGTSGYPPTLVYQNGSIGCVENVDASSYPPPPQSDSASSPSPSFSEDNLPPPPAEFSYPVDNQRGSGLAGPKRSSVVSPSHPPPAPPLGSPPGPKPGFAPPPAPPPPPPPMIGIPPPPPPVGFGSPGTPPPPSPPSFPPHPDFAAPPPPPPPPAADYPTLPPPPLSQPTGGAPPPPPPPPPPGPPPPPFTGADGQPAIPPPLSDTTKPKSSLPAVSDARSDLLSAIRQGFQLRRVEEQREQEKRDVVGNDVATILSRRIAVEYSDSEDDSSEFDEDDWSD | 2 | 0 | 0
ASCC2 (protein, UniProt Q9H1I8 1-757, looked up) Activating signal …: MPALPLDQLQITHKDPKTGKLRTSPALHPEQKADRYFVLYKPPPKDNIPALVEEYLERATFVANDLDWLLALPHDKFWCQVIFDETLQKCLDSYLRYVPRKFDEGVASAPEVVDMQKRLHRSVFLTFLRMSTHKESKDHFISPSAFGEILYNNFLFDIPKILDLCVLFGKGNSPLLQKMIGNIFTQQPSYYSDLDETLPTILQVFSNILQHCGLQGDGANTTPQKLEERGRLTPSDMPLLELKDIVLYLCDTCTTLWAFLDIFPLACQTFQKHDFCYRLASFYEAAIPEMESAIKKRRLEDSKLLGDLWQRLSHSRKKLMEIFHIILNQICLLPILESSCDNIQGFIEEFLQIFSSLLQEKRFLRDYDALFPVAEDISLLQQASSVLDETRTAYILQAVESAWEGVDRRKATDAKDPSVIEEPNGEPNGVTVTAEAVSQASSHPENSEEEECMGAAAAVGPAMCGVELDSLISQVKDLLPDLGEGFILACLEYYHYDPEQVINNILEERLAPTLSQLDRNLDREMKPDPTPLLTSRHNVFQNDEFDVFSRDSVDLSRVHKGKSTRKEENTRSLLNDKRAVAAQRQRYEQYSVVVEEVPLQPGESLPYHSVYYEDEYDDTYDGNQVGANDADSDDELISRRPFTIPQVLRTKVPREGQEEDDDDEEDDADEEAPKPDHFVQDPAVLREKAEARRMAFLAKKGYRHDSSTAVAGSPRGHGQSRETTQERRKKEANKATRANHNRRTMADRKRSKGMIPS | 0 | 0 | 1
PSD4 (protein, UniProt Q8NDX1 1-1056, looked up) PH and SEC7 domain-containing …: MMGDYRLPDHPQPMEILNLYLGDSLEPHPGECPRETCSHEDPPEPFEEQTWATDPPEPTRQNVPPWGSGVELTHLGSWVHQDGLEPCQEQTRATDPPESTRQDAPPWGSGVELTHLGSPSAQREHRQNTASPGSPVNSHLPGSPKQNRSTSTQVVFWAGILQAQMCVLDLEEELEKTEGLKAGLKCCLPTPPVDLPGDTGLHSSPPENEDSGEDSSEPEGEGQAWLREGTPDSSPQWGAEEESMFFSNPLFLASPCSENSASGECFSWGASDSHAGVRTGPESPATLEPPLPEDTVLWELESEPDLGDGAAISGHCTPPFPVPIYKPHSICWASVAAAEGAPAAPPGHGESEGDRLGPAPSAAPCVDEALTWESGCVGSDLGPAAHPVQPWASLSPEGWQRGGPFWPQVTLNSQDRDEREGGHPQESLPCTLAPCPWRSPASSPEPSSPESESRGPGPRPSPASSQEGSPQLQHHSSGILPKWTLDASQSSLLETDGEQPSSLKKKEAGEAPKPGEEVKSEGTARPAETGDVQPDIHLTSAEHENLRTPMNSSWLPGSPMPQAQSPEEGQRPPAGDKLANGVRNNKVAWNLASRLYRLEGFRKSEVAAYLQKNNDFSRAVAEEYLSFFQFGGQSLDRALRSFLQALVLSGETQERERILYQFSRRFHHCNPGIFPSVDSVHTLTCAIMLLNTDLHGQNIGKSMSCQEFITNLNGLRDGGNFPKELLKALYWSIRSEKLEWAVDEEDTARPEKAQPSLPAGKMSKPFLQLAQDPTVPTYKQGILARKMHQDADGKKTPWGKRGWKMFHTLLRGMVLYFLKQGEDHCLEGESLVGQMVDEPVGVHHSLATPATHYTKKPHVFQLRTADWRLYLFQAPTAKEMSSWIARINLAAATHSAPPFPAAVGSQRRFVRPILPVGPAQSSLEEQHRSHENCLDAAADDLLDLQRNLPERRGRGRELEEHRLRKEYLEYEKTRYETYVQLLVARLHCPSDALDLWEEQLGREAGGTREPKLSLKKSHSSPSLHQDEAPTTAKVKRNISERRTYRKIIPKRNRNQL | 2 | 0 | 0
MALT1 (protein, UniProt Q9UDY8 2-824, looked up) Mucosa-associated lymphoid …: SLLGDPLQALPPSAAPTGPLLAPPAGATLNRLREPLLRRLSELLDQAPEGRGWRRLAELAGSRGRLRLSCLDLEQCSLKVLEPEGSPSLCLLKLMGEKGCTVTELSDFLQAMEHTEVLQLLSPPGIKITVNPESKAVLAGQFVKLCCRATGHPFVQYQWFKMNKEIPNGNTSELIFNAVHVKDAGFYVCRVNNNFTFEFSQWSQLDVCDIPESFQRSVDGVSESKLQICVEPTSQKLMPGSTLVLQCVAVGSPIPHYQWFKNELPLTHETKKLYMVPYVDLEHQGTYWCHVYNDRDSQDSKKVEIIIGRTDEAVECTEDELNNLGHPDNKEQTTDQPLAKDKVALLIGNMNYREHPKLKAPLVDVYELTNLLRQLDFKVVSLLDLTEYEMRNAVDEFLLLLDKGVYGLLYYAGHGYENFGNSFMVPVDAPNPYRSENCLCVQNILKLMQEKETGLNVFLLDMCRKRNDYDDTIPILDALKVTANIVFGYATCQGAEAFEIQHSGLANGIFMKFLKDRLLEDKKITVLLDEVAEDMGKCHLTKGKQALEIRSSLSEKRALTDPIQGTEYSAESLVRNLQWAKAHELPESMCLKFDCGVQIQLGFAAEFSNVMIIYTSIVYKPPEIIMCDAYVTDFPLDLDIDPKDANKGTPEETGSYLVSKDLPKHCLYTRLSSLQKLKEHLVFTVCLSYQYSGLEDTVEDKQEVNVGKPLIAKLDMHRGLGRKTCFQTCLMSNGPYQSSAATSGGAGHYHSLQDPFHGVYHSHPGNPSNVTPADSCHCSRTPDAFISSFAHHASCHFSRSNVPVETTDEIPFSFSDRLRISEK | 0 | 0 | 2
MLF2 (protein, UniProt Q15773 1-248, looked up) Myeloid leukemia factor 2: MFRFMRDVEPEDPMFLMDPFAIHRQHMSRMLSGGFGYSPFLSITDGNMPGTRPASRRMQQAGAVSPFGMLGMSGGFMDMFGMMNDMIGNMEHMTAGGNCQTFSSSTVISYSNTGDGAPKVYQETSEMRSAPGGIRETRRTVRDSDSGLEQMSIGHHIRDRAHILQRSRNHRTGDQEERQDYINLDESEAAAFDDEWRRETSRFRQQRPLEFRRLESSGAGGRRAEGPPRLAIQGPEDSPSRQSRRYDW | 2 | 0 | 1
